Assay results taken from publication PMC2699478.

Legend:
[1] = target: NFAT (mouse (endogenous in NIH3T3)) (UniProt Q60591)
[2] = target: NF-kB (mouse (endogenous in NIH3T3))

UniProt Q60591, sequence (Q60591 whole entry): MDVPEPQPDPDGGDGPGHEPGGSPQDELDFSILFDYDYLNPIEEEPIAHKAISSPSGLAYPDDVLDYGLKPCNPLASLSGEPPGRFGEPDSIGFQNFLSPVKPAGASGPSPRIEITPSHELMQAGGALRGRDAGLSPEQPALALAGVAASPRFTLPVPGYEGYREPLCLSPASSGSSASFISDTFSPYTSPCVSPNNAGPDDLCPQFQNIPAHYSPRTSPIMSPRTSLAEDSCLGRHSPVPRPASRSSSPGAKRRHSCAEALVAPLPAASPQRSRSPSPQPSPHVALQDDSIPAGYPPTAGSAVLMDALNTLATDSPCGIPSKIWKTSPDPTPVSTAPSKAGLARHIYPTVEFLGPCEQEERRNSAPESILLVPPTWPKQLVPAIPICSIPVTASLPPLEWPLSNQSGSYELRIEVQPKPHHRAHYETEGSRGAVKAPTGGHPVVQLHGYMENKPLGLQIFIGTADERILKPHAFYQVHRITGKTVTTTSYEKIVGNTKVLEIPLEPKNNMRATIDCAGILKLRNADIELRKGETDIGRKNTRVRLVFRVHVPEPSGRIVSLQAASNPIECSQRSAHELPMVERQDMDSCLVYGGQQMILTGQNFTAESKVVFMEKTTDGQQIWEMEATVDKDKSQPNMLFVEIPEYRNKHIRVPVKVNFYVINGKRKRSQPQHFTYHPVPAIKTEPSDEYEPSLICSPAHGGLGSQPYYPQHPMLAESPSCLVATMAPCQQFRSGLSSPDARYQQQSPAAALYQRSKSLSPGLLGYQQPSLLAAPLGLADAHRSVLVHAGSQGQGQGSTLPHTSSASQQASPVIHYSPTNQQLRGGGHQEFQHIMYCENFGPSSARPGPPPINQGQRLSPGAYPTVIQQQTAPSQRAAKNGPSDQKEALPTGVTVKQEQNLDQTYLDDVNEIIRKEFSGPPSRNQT

## FOXP3Δ2 (natural protein)
[1]
  NFAT-mediated transcription of luciferase (pNFAT-TA-Luc) in NIH3T3 cells co-transfected with the FOXP3 isoform; induction without FOXP3 set 100%: 50%
[2]
  NF-kB-mediated transcription of luciferase (pNF-κB-Luc) in NIH3T3 cells co-transfected with the FOXP3 isoform; level left, induction without FOXP3 set 100%: 9%
